Results taken from US20180327506A1 (AbbVie / Abbott, published 2018).
Where two headings read alike, the source gives them in different places.

Key:
[1] = target: T1, full-length mature human EMR2 (residues Q24-N823) with N-terminal aspartic acid/lysine epitope tag, … (human, UniProt Q9UHX3 24-823); test: cell-based or functional assay
T1 sequence: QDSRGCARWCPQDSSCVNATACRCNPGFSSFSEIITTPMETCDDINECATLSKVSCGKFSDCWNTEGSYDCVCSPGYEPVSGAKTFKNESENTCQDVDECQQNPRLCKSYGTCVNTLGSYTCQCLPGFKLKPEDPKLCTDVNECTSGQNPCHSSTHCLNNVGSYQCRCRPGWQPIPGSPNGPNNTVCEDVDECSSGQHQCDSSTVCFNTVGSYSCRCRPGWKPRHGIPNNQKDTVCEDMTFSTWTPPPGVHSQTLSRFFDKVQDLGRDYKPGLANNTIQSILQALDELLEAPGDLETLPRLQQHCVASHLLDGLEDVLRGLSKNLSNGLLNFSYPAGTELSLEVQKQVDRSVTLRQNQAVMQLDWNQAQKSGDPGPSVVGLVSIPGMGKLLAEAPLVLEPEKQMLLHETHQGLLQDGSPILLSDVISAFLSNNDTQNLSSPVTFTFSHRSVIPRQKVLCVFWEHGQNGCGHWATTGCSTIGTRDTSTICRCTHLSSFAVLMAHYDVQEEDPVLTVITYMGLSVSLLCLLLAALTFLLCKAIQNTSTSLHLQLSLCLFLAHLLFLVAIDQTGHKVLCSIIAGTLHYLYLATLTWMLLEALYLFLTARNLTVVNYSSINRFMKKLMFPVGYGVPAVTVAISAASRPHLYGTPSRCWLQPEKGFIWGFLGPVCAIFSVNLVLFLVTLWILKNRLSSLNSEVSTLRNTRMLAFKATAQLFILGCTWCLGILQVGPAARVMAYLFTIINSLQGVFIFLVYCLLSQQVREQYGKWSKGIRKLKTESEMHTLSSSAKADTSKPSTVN

[2] = target: T2, full-length mature cynomolgus EMR2 (residues Q24-N816) with N-terminal aspartic acid/lysine epitope tag, … (cynomolgus monkey (Macaca fascicularis), UniProt A0A2K5WL23 21-816); test: cell-based or functional assay
T2 sequence: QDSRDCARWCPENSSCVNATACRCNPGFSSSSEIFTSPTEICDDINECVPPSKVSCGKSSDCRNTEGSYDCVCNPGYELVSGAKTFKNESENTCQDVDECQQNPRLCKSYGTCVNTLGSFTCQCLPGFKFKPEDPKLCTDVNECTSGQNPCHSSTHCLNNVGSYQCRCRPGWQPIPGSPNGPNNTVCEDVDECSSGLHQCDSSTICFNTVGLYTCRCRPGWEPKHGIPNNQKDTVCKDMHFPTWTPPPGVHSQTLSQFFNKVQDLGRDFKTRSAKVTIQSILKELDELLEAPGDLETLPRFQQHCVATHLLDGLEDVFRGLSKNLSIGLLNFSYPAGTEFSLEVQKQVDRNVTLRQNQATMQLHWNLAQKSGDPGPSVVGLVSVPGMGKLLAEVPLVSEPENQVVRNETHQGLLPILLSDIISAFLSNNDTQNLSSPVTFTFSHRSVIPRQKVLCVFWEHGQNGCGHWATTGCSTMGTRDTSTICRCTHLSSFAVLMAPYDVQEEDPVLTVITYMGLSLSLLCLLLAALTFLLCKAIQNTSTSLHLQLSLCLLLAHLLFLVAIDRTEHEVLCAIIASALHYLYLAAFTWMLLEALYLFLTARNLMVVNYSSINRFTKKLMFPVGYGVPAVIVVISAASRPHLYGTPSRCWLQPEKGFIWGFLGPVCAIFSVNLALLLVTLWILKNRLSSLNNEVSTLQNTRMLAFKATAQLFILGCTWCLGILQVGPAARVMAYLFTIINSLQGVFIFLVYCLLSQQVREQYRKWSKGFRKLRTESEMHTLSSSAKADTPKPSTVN

[3] = target: T3, full-length mature human CD97 (residues Q21-I845) with N-terminal aspartic acid/lysine epitope tag, … (human, UniProt P48960 21-835); test: cell-based or functional assay
T3 sequence (looked up): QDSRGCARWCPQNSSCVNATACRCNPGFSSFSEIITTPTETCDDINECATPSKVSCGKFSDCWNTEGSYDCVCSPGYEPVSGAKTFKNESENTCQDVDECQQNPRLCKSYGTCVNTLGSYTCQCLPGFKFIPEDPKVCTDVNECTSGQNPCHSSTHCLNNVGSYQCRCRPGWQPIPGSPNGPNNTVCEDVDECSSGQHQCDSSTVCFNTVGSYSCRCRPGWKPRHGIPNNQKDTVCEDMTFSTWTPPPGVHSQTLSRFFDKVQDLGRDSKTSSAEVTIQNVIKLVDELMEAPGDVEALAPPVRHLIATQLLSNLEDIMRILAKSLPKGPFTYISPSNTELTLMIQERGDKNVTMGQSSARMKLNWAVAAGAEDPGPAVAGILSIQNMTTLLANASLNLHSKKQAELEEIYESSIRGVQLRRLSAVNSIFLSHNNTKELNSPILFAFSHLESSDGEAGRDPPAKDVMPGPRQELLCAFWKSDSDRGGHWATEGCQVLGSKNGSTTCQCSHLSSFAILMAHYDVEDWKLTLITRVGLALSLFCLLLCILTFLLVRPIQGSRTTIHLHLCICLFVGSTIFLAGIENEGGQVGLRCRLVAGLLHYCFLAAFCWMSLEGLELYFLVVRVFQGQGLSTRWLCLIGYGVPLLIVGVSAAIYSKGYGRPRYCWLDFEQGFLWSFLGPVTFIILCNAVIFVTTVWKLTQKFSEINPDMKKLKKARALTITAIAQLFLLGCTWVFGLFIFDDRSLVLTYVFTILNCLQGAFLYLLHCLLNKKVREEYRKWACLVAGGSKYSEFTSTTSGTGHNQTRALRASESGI

[4] = target: T3, full-length mature human CD97 (residues …); test: flow cytometry on HEK293T cells overexpressing hCD97
Experimental: (§1) The exemplary antibodies were also tested using flow cytometry to determine their ability to associate with hEMR2, cEMR2 and CD97 expressed on the surface of cells.

[5] = target: T1, full-length mature human EMR2 (residues …); test: flow cytometry on transduced HEK293T; 293 naive MFI 102
Experimental: as §1

[6] = target: T2, full-length mature cynomolgus EMR2 …; test: as above
Experimental: as §1

[7] = target: T3, full-length mature human CD97 (residues …); test: as above
Experimental: as §1

[8] = target: T1, full-length mature human EMR2 (residues …); test: cell-based or functional assay; remark: listed apart in the source
[9] = target: T2, full-length mature cynomolgus EMR2 …; test: cell-based or functional assay; remark: listed apart in the source
[10] = target: T3, full-length mature human CD97 (residues …); test: cell-based or functional assay; remark: listed apart in the source
[11] = target: T1, full-length mature human EMR2 (residues …); test: flow cytometry on transduced HEK293T; 293 naive MFI 97.2
Experimental: as §1

[12] = target: T2, full-length mature cynomolgus EMR2 …; test: as above
Experimental: as §1

[13] = target: T3, full-length mature human CD97 (residues …); test: as above
Experimental: as §1

[14] = target: T1, full-length mature human EMR2 (residues …); test: flow cytometry on transduced HEK293T; 293 naive MFI 95.6
Experimental: as §1

[15] = target: T2, full-length mature cynomolgus EMR2 …; test: as above
Experimental: as §1

[16] = target: T3, full-length mature human CD97 (residues …); test: as above
Experimental: as §1

[17] = target: T1, full-length mature human EMR2 (residues …); test: flow cytometry on transduced HEK293T; 293 naive MFI 67.6
Experimental: as §1

[18] = target: T2, full-length mature cynomolgus EMR2 …; test: as above
Experimental: as §1

[19] = target: T3, full-length mature human CD97 (residues …); test: as above
Experimental: as §1

B1: SC93.266 (antibody, V domains shown)
VH: EVKLEESGGGLVQPGGSMKLSCAASGFTFSDAWMDWVRQSPEKGLEWVAEIRSKVNNHETYYAESVKGRFTISRDDSKSSVYLQMNSLRAEDTGIYYCIRNDYFDYWGQGTTLTVSS
VL: DIQMTQTTSSLSASLGDRVTISCSASQGIRNYLNWYQQKPDGTVKLLIYYTSRLHSGVPSRFSGSGSGTDYSLTISNLEPEDIATYYCQQYGKLPYTFGGGTKLEIN
notes: Murine hybridoma antibody
% live, FAB-saporin killing assay [1]: 13.1% | % live, FAB-saporin killing assay [2]: 12.7% | % live, FAB-saporin killing assay [3]: 99.2% | binding result [4]: no binding | FC MFI [5]: 49900 | FC MFI [6]: 40400 | FC MFI [7]: 98.3

B2: SC93.221 (antibody, IgG1, V domains shown)
VH: QIQLVQSGSELKKPGETVKISCKASGYTFTDYSINWVKQAPGKGFKWMGWINTYTGVPTYADDFKGRFAFSLETSATTAYLQINNLKNEDTATYFCARARYDGYYGRFDYWGQGTTLTVSS
VL: DFLMTQTPLSLPVSLGDQASISCRSSQSIVHSNGDTYLEWFLQKPGQSPKLLIYKVSNRFSGVPDRFSGSGSGTDFTLKISRVEAEDLGVYYCFQGSHVPFTFGSGTKLEIK
notes: murine, IgG1
% live, FAB-saporin killing assay [8]: 101% | % live, FAB-saporin killing assay [9]: 92.2% | % live, FAB-saporin killing assay [10]: 99.1% | FC MFI [11]: 5080 | FC MFI [12]: 72.5 | FC MFI [13]: 74.2

B3: SC93.219 (antibody, IgG2b, V domains shown)
VH: EVQLVESGGGLVQPGGSRKLSCAASGFTFSSYGMHWVRQAPEKGLEWVAYISSSGGTIYYADTVKGRFTISRDNAKNTLFLQMTSLRSEDTAMYYCARRGYGNSFDYWGQGTTLTVSS
VL: QIVLTQSPAIMSASPGEKVTMTCSASSSVSYMYWYQQKPGSSPRLLIYDTSNLASGVPVRFSGSGSGTSYSLTISRMEAEDAATYYCQQWSSYPPFGGGTKLEIK
notes: murine, IgG2b
% live, FAB-saporin killing assay [8]: 100% | % live, FAB-saporin killing assay [9]: 87.7% | % live, FAB-saporin killing assay [10]: 102% | FC MFI [14]: 76.2 | FC MFI [15]: 85.3 | FC MFI [16]: 87.5

B4: SC93.160 (antibody, IgG2a, V domains shown)
VH: QILLVQSGPELKKPGETVKISCKASGYTFTDYGIHWVKQAPGKGLKWMGWINTKTGVPTYADDFKGRFAFSLETSASTAYLQINNLKIEDTATYFCAGGNSLYYGSRPYWGQGTLVTVSA
VL: DIVMTQSPSSLTVTAGEKVTMSCKSSQSLLNSGNQKNYLTWYQQKPGQPPKLLIYWASTRESGVPDRFTGSGSGTDFTLTISSVQAEDLAVYYCQNDYSYPTFGSGTKLELK
notes: murine, IgG2a
% live, FAB-saporin killing assay [8]: 96.8% | % live, FAB-saporin killing assay [9]: 101% | % live, FAB-saporin killing assay [10]: 105% | FC MFI [17]: 26000 | FC MFI [18]: 62.6 | FC MFI [19]: 61.8
